US20140120095A1 (Boehringer Ingelheim, published 2014)
Positions count from the first letter of the chain named.

T1: human DLL1 (Alexis) (human, UniProt O00548 18-545, limits assumed)
T1 construct: also called hDLL1
T1 sequence (looked up): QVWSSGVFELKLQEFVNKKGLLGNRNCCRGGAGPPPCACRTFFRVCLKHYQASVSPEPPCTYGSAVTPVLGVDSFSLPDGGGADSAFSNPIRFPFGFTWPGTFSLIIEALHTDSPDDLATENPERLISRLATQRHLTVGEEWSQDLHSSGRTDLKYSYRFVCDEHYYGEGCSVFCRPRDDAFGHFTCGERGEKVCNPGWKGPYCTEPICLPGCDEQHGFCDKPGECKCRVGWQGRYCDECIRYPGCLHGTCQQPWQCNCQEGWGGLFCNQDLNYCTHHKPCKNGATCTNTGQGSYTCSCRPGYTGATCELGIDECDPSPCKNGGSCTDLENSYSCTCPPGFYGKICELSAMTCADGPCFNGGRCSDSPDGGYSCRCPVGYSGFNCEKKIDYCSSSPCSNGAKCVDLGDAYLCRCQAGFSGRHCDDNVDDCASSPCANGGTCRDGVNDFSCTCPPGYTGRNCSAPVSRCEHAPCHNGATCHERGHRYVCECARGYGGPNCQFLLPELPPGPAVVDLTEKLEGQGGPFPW

B1: DLLBII101G08 (VHH, not shown: small tags and cut ends)
VHH: EVQLVESGGGLVQAGGSLRLSCAASGRTFSSYAMAWFRQAPGKEREFVAAIRWSGGTAYYADSVQGRFTISRDNAKNTVYLQMNSLKPEDTAVYYCANRAADTRLGPYEYDYWGQGTQVTVSS
notes: parent VHH; also called 101G08 (wt); 101G8
B2: DLLBII129E11 (VHH, not shown: small tags and cut ends)
VHH: B1 VHH with F37Y, F47Y, A101P, G106R, E109L
B3: DLLBII129D08 (VHH, not shown: small tags and cut ends)
VHH: B1 VHH with F37Y, F47Y, A101P, G106E, E109L
B4: DLLBII129B05 (VHH, not shown: small tags and cut ends)
VHH: B1 VHH with F37Y, F47Y, A101P, G106A, Y112H
B5: DLLBII56A09 (VHH)
VHH: EVQLVESGGGLVQPGGSLRLSCAASGFTFDDYAIGWFRQAPGKEPEGISCISSSGGITYYADSVKGRFTTSRDNAKNTVYLQMNSLKPEDTAVYYCATPGIAACRGIHYTGQGTQVTVSS
notes: also called 56A9; DLLBII56A9
B6: DLLBII101G08 (VHH)
VHH: B1 VHH
notes: also called 101G8; DLLBII101G8
B7: DLLBII115A05 (VHH)
VHH: EVQLVESGGGLVQPGGSLRLSCAASGFTFGSYDMSWVRRSPGKGPEWVSSINSGGGSTYYADFVKGRFTISRDNAKNTLYLQMNSLKPEDTAVYYCAADRYIRARQGDYWGAYEYDYWGQGTQVTVSS
notes: also called 115A5; DLLBII115A5

target: T2, recombinant human DLL4 (C-terminally His-tagged extracellular domain, R&D Systems) (human, UniProt Q9NR61 25-522, biotinylated in the competition ELISA); assay: ProteOn off-rate screen, periplasmic extract, coated human DLL4
T2 construct: also called rhDLL4; hDLL4
Experimental: (§1) In a first cycle, amino acid substitutions are introduced randomly in both framework (FW) and complementary determining regions (CDR) using the error-prone PCR method. […] After a polish step, PCR products are inserted via unique restriction sites into a vector designed to facilitate phage display of the VHH library. Consecutive rounds of in-solution selections are performed using decreasing concentrations of biotinylated recombinant human DLL4 (biot-rhDLL4) and trypsin elutions. Affinity-driven selections in a third round using cold rhDLL4 (at least 100× excess over biot-rhDLL4) are also performed. No selections on murine DLL4 are included as (conservation of) cross-reactivity is assessed at the screening level. Individual mutants are produced as recombinant protein using an expression vector derived from pUC119, which contains the LacZ promoter, a resistance gene for ampicillin, a multiple cloning site and an ompA leader sequence (pAX50). E. coliTG1 cells are transformed with the expression vector library and plated on agar plates (LB+Amp+2% glucose). Single colonies are picked from the agar plates and grown in 1 mL 96-deep-well plates. VHH expression is induced by adding IPTG (1 mM). Periplasmic extracts (in a volume of ˜80 uL) are prepared according to standard methods and screened for binding to recombinant human and mouse DII4 in a ProteOn (BioRad, Hercules, Calif., USA) off-rate assay. In brief, a GLC ProteOn Sensor chip is coated with recombinant human DII4 on the “ligand channels” L2 and L4 (with L1/L3 as reference channel), while “ligand channels” […] is coated with mouse DII4. Periplasmic extract of affinity-matured clones is diluted 1/10 and injected across the “analyte channels” A1-A6. An average off-rate is calculated of the wild type clones present in the plate and served as a reference to calculate off-rate improvements.

| fold (off-rate vs DLLBII101G08) [fold] | koff [s⁻¹] | Binder |
| --- | --- | --- |
| 1 | 0.0022 | B1 |
| 28 | 8e-05 | B2 |
| 38 | 5.9e-05 | B3 |
| 24 | 9.3e-05 | B4 |

target: T3, human Jagged-1 (human, UniProt P78504 34-1067, limits assumed); assay: binding ELISA on coated recombinant human Jagged-1, OD 405 nm
T3 construct: also called hJagged-1; hJAG1
How it was run: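 Plates coated overnight at 4° C with 1 μg/mL ligand, blocked with 1% casein in PBS. VHH dilution series applied; bound VHH detected via mouse anti-myc then anti-mouse-AP conjugate.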

| binding result | Binder |
| --- | --- |
| no binding (tested: 5e-7 M) | B5 |
| no binding (tested: 5e-7 M) | B6 |
| no binding (tested: 5e-7 M) | B7 |

target: T4, human DLL4 overexpressed on cells (human, UniProt Q9NR61 27-685); assay: competitive FMAT, hNotch1-Fc on CHO-hDLL4
T4 construct: full length human DLL4 on CHO or HEK293 cells; also called CHO-hDLL4; CHO-hDII4

| IC50 [nM] | Binder |
| --- | --- |
| 10.6 | B5 |
| 24.6 | B6 |
| 22 | B7 |

target: T1, human DLL1 (Alexis); assay: binding ELISA on coated human DLL1 (Example 5.8, Example 7), OD 450 nm

| Binder | binding result |
| --- | --- |
| B1 | no binding (tested: log[M] -6.1 (about 8e-7 M)) |
| B2 | no binding (tested: log[M] -6.1 (about 8e-7 M)) |
| B3 | no binding (tested: log[M] -6.1 (about 8e-7 M)) |
| B4 | no binding (tested: log[M] -6.1 (about 8e-7 M)) |

target: T5, mouse DLL4 overexpressed on cells (mouse, UniProt Q9JI71 27-686); assay: competitive FMAT, hNotch1-Fc on CHO-mDLL4
T5 construct: whole, on cells; also called CHO-mDLL4; CHO-mDII4
T5 sequence (Q9JI71 27-686): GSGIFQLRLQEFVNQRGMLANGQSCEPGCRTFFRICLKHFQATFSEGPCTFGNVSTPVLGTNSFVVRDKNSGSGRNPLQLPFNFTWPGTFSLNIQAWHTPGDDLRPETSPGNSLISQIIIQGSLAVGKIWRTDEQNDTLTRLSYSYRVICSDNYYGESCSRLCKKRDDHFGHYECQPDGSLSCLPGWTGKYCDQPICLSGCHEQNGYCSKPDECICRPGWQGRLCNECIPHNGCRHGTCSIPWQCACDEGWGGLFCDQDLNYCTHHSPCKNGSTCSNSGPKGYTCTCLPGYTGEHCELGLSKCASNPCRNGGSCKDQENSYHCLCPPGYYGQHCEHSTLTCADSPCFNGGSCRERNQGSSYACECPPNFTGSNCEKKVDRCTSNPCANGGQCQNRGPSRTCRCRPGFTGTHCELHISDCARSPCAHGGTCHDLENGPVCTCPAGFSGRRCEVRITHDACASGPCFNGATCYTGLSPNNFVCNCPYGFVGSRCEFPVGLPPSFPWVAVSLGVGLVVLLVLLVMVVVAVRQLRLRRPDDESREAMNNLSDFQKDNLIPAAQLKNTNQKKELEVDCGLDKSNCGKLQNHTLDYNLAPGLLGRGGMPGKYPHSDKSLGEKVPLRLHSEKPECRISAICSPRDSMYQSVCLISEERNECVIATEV

| IC50 [nM] | Binder |
| --- | --- |
| 15 | B5 |
| 92.1 | B6 |
| 43 | B7 |

target: T6, recombinant mouse DLL4 (C-terminally His-tagged extracellular domain, R&D Systems) (mouse, UniProt Q9JI71 27-532); assay: ProteOn off-rate screen, periplasmic extract, coated mouse DLL4
T6 construct: extracellular domain; also called rmDLL4; mDLL4
T6 sequence (Q9JI71 27-532): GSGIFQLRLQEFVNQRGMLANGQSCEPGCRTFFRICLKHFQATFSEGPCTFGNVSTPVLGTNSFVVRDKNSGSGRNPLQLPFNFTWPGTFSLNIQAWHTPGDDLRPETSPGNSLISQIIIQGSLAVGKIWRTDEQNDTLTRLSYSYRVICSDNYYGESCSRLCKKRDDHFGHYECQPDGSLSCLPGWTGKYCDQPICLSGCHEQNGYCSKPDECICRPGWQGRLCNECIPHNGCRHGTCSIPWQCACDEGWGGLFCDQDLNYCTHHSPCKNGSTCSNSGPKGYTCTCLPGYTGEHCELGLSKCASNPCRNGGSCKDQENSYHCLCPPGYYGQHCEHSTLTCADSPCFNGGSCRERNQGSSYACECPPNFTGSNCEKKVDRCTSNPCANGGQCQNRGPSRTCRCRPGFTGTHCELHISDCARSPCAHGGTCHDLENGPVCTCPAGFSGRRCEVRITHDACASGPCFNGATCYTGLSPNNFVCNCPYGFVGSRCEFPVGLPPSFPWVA
Experimental: as §1

| fold (off-rate vs DLLBII101G08) [fold] | koff [s⁻¹] | Binder |
| --- | --- | --- |
| 1 | 0.0067 | B1 |
| 26 | 0.00025 | B2 |
| 35 | 0.00019 | B3 |
| 20 | 0.00034 | B4 |

target: T7, recombinant human DLL4 (human, UniProt Q9NR61 25-522); assay: SPR Biacore T100, hDLL4 on chip, VHH/Fab injected
T7 construct: also called rhDLL4; hDLL4
Experimental: Kinetic analysis to determine the affinity of the DII4-VHH interaction is performed by Surface Plasmon Resonance (SPR) on a Biacore T100 instrument. […] Purified VHHs or Fab fragment are injected for 2 minutes at different concentrations (between 10 and 300 nM) and allowed to dissociate for 20 min at a flow rate of 45 μl/min. Between sample injections, the surfaces are regenerated with 10 mM glycine pH1.5 and 100 mM HCl. HBS-N (Hepes buffer pH7.4) is used as running buffer. If possible, data are evaluated by fitting a 1:1 interaction model (Langmuir binding) onto the binding curves. The affinity constant KD is calculated from resulting association and dissociation rate constants (kₐ) and […].

| Kd [nM] | koff [s⁻¹] | kon [M⁻¹ s⁻¹] | Binder |
| --- | --- | --- | --- |
| 5.6 | 0.00093 | 170000 | B5 |
| 52 | 0.0022 | 43000 | B6 |
| 25 | 0.0039 | 150000 | B7 |
